Data on two molecules can be found in US20100266576A1 (CENTRE NATIONAL DE LA RECHERCHE SCIENT, published 2010).

For one experiment, the target named is T1, peptide Aβ 29-40.
T1 construct: Bought from Bachem; also called Aβ42 fragment 29-40
T1 peptide: GAIIGLMVGGVV
Description: competition ELISA in solution (Friguet method). How it is done:
(§1) Binding affinity of VHH antibodies was determined as described in Friguet et al., (1985). Various concentrations of Aβ peptides were incubated in solution overnight at 4° C. with a known quantity of VHH antibody until equilibrium was reached. The VHH antibody concentration used was determined by preliminary ELISA calibrations. Each mixture (100 μl) was transferred to a well of a microtiter plate previously coated with antigen and was incubated for 20 min at 4° C. The plates were washed with buffer A and free VHH antibodies were detected by adding β-galactosidase-conjugated goat anti-rabbit Igs (Biosys, Compiegne, France) and 4-methylumbelliferyl β-D galactoside (Sigma). Fluorescence was read (Fluoroskan, Labsystem, Finland) at 460 nm, after excitation at 355 nm. KD was estimated from the slope of the regression curve obtained by plotting the reciprocal of the fraction of bound antibody versus the reciprocal of the molar concentration of antigen.
On the technique in general: In an ELISA, binding on a coated surface is turned into a signal by an enzyme label.

The target of another experiment is T2, peptide Aβ 33-42.
T2 construct: Bought from Bachem; also called Aβ42 fragment 33-42
T2 peptide: GLMVGGVVIA
Description: competition ELISA in solution (Friguet method). The protocol:
as §1

In another experiment the target is T3, Aβ42 fragment 15-25.
T3 construct: Bought from Bachem; also called Aβ 15-25
T3 peptide: QKLVFFAEDVG
The experiment in a line: competition ELISA for KD (Friguet method) with Aβ fragment peptides. How it is done: as §1

A further experiment addresses T4, Aβ42 fragment 22-35.
T4 construct: Bought from Bachem; also called Aβ 22-35
T4 peptide: EDVGSNKGAIIGLM
The experiment is described as above. The protocol: as §1

A further experiment has as its target T5, Aβ42 fragment 10-20.
T5 construct: Bought from Bachem; also called Aβ 10-20
T5 peptide: YEVHHQKLVFF
The description is as above. The protocol:
as §1

In another experiment the target is T6, Aβ42 fragment 1-11.
T6 construct: Bought from Bachem; also called Aβ 1-11; printed as fragment 1-10 in the result sentence
T6 peptide: DAEFRHDSGYE
The experiment is described as above. The protocol: as §1

Experiment [1] addresses T7, amyloid β peptide 42 (Aβ42).
T7 construct: Synthetic peptide bought from Bachem, used as monomer/oligomer mixtures after incubation at 37 C; also called Aβ42 monomer; Aβ42 oligomers
Description: immunohistochemistry on human AD brain sections. How it is done:
Immunostaining of brain tissue was performed on […] thick paraffin sections. Sections were de-paraffinized in xylene, rehydrated through ethanol
(100%, 96%, and 90%) and finally brought to water. They were incubated in 90% formic acid, washed again in water, quenched for endogenous peroxidase with 3% hydrogen peroxyde and 20% methanol, and finally washed in water. Non-specific binding was blocked by incubating the sections for 10 minutes in 2% bovine serum albumin in TBS+0.5% Tween. Appropriate dilutions of primary antibodies were then applied overnight in a humidified chamber at room temperature (typically 1 μg/ml for VHH, and 1:200 for 6F/3D mAb). Slides were washed with TBS-Tween and incubated with secondary antibodies (rabbit anti-His Tag or biotinylated anti-mouse immunoglobulins) in TBS-Tween at room temperature for 2 hours. Slides were then incubated with either peroxidase goat anti-rabbit immunoglobulins or streptavidine-peroxidase fusions, and developed with diaminobenzidine (DAB) for 2 minutes. After washing with TBS-Tween, slides were counter-stained with hematoxylin and eosin.

T7 sequence (peptide, as listed by the source): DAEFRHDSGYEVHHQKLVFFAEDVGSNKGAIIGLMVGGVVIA

B1: VHH V31-1 (VHH)
VHH: EVQLQASGGGSVQPGGSLRLSCAASGFIFGWSTMSWVRQAPGKGLEWVSTISGGGSATTYTDSVKGRFTISRDRAKNTLYLQMNSLKPEDTAIYYCNADVSTGFRYQRKDYWGRGTQVTVS
notes: Camelid VHH subcloned from pHEN1 into pET22, expressed in the E. coli periplasm and purified by Ni-NTA IMAC; It was detected with anti-c-myc or anti-His tag antibodies; also called VHH V31-1 antibody; CNCM I-2936
Turning to B1, the Kd with peptide Aβ 29-40 and in the experiment with peptide Aβ 33-42 was 20 nM in each case. The binding result with Aβ42 fragment 15-25, with Aβ42 fragment 22-35, with Aβ42 fragment 10-20 and with Aβ42 fragment 1-11 was “no binding” throughout.

B2: VHH 61-3 (VHH)
VHH: EVQLQASGGGLVQAGGSLRLSCAASGSTFRINRMGWYRQAPGKQRELVASINSGGSTNYADSVKGRFTISRDNAKGTVNLTMNSLKPEDTAVYYCNRVTPWPYWGQGTQVTVS
notes: Expressed from pET22 and purified by Ni-NTA; also called CNCM I-2933
For the molecule B2, the binding result in experiment [1] is listed as “binds”.

As usually defined, the Kd is the equilibrium constant for the complex coming apart.
